Test results published in PMC5953937.

Biological target: lipin 1 (UniProt Q14693)
Assay: co-immunoprecipitation (presumed)
Settings: reference: wild-type Tip60; sites S86

binding against the reference: weaker
Substance: Tip60 (from UniProt Q92993) S86A-Tip60
